Assay: soluble on expression in E. coli; label from the status in PepcDB or PDB records

Soluble on expression in E. coli, not soluble:
MGSDKIHHHHHHMLITCSESGIDFGKSLSTYIHEYLGLNRNCRLFEVKQACYSGTAGFQMAVNFILSQTSPGAKALVIASDISRFLIAEGGDALSEDWSYAEPSAGAGAVAVLVGENPEVFQIDPGANGYYGYEVMDTCRPIPDSEAGDSDLSLMSYLDCCEQTFLEYQKRVPGANYQDTFQYLAYHTPFGGMVKGAHRTMMRKVAKVKTSGIETDFLTRVKPGLNYCQRVGNIMGAALFLALASTIDQGRFDTPKRIGCFSYGSGCCSEFYSGITTPQGQERQRTFGIEKHLDRRYQLSMEEYELLFKGSGMVRFGTRNVKLDFEMIPGIMQSTQEKPRLFLEEISEFHRKYRWIS
MGSDKIHHHHHHMTVEPLHILHLISTSGLFGAERVLLELASQSRSLGMHVTVAALKNSRNPNTELAEAARGAGLPTLVVPCGGRFDAGVVGILTEEIRKSGTQIIHSHNYKSNYYARQAAELSGARWIVTNHGRRAGFKLFLYALLDAMLVRKADRVVAVSPKIADRLAVLGIGRDGLSVIDNGVDFSRFESLPTKADAGNVLGVAGSSYVIGTVGALTEEKGHRHLLQAVKSVRKSIPNVVCVVVGDGPERRRLEQLAREEGIEQTAIFTGKRDDVPSILPRFDLFVLPSLSEGLPMALLEAQAAKVPAIATNVGAIATVINNGVTGVVVSPGDVPALAEAIIRSHDEADKARCMALKGYERVKVHYSADTMAQRYIEIYRGMIGAGGAIG
MGSDKIHHHHHHMHQDTVRATAFAMPLTSPAYPVGPYRFRNREYLIITYRTDPKKLRSLVPEPLELSEPLVKFEFIRMPDSTGFGNYTESGQVIPVTFRGRKGSYTHCMFLNDHPPIAGGRELWGFPKKLATPTLRTETDTLVGTLDYGPVRVATATMGYKHEAADLSAVRSSLAEPNFLLKIIPHVDGTPRICELVEYHLEDVDLRGAWAGPASLNLWSHALAPVAELPVLEVVSAMHIVADLTLALGKVVHDYLPKSEPRDLKGRSHAFAE
MGSDKIHHHHHHMNYRERIAQSITPLQGNLFRVVESQEDIATARIVDSMQEQNRLEELLESNKPPVPGTARKRHYLLTTPFRYPPLKYGSRFGRSFEPSLFYGAMSIPTALAETAFYRFVFMSHLKVPFKRPLTTLHTVFSARFRTERGVRLQSEHWQDLHHTLADPVSYRESQAVGTDMRSLQVGAFQFLSARALQAGLYALPYHPDNGVEGVNVALFNASVFRDAAPRSYQKLIAVTSPSQVSMSLSEPDGSKKVYEFSLDQFLVEGELPQPAP
MQRIIKNNEVIDETWHLLPKDTTLDSLSNCDDLIVPLALWREHAHALKARDGGLGVWLDSDEEAEEIGEDVDQFQVIALNFPAFTDGRSFSNARLLRDRYGFKGELRAIGDVLRDQLFYMRRCGFDAFAVRADKDPYDALEGLKDFSVTYQAATDEPLPLFRRR
MGSDKIHHHHHHMAVSELQVQSALKELIDPNTHKDYVTTKSARNIKIDGDAVSVDIALGYPAQSQLATIKQQVEDKLKTLDGVSKATANVSFKIVSHSVQRGVKLIPNVKNIIAVASGKGGVGKSTTAVNLALALAAEGARVGMLDADIYGPSQPTMLGITDKPESTDGKNLDPLIGHGIQAMSIGFLIDVETPMVWRGPMVTQALEQLLNNTNWNELDYLVVDLPPGTGDIQLTLAQRVPVTGAVIVTTPQDIALIDARKGLKMFEKVGIPIIGVVENMSLHICSNCGHEERIFGEGGGERMCRDYNVEFLGALPLDSSIRADTDSGKPSVVSDPDGRVTEIYKQIARRVAVKIGETAVDHSAKFPNIVISNT
MGSDKIHHHHHHMHRVGFTTTIPLEIVLAAGMTPVDLNNVFITSPHATRMIEEAEVDGFPRSICGWIKGIYAAVVECGIHELIAVTEGDCSNTRALMEVLSLKGVETIPFAYPHDRDPAGLRFEIEKLMRRFGVGWDAVKLSRERLGRIRRKVKEIDRLTWDENRVSGQENHYFQVCTSDMNSDPDRFEAEVDAFLEKARQREPFRQRLRLAYIGVPPIMTDLYPFVETLDARVVFNETQRQFAMPFDTPDLVEQYRAYTYPYDIFHRLSDILMELERRKVDAVIHYVQSFCFRQIEDMIVRQKLPLPVLTLEGDKPGPLDARTRIRIEGFLEMLA
MRAWPIHLHVGSIERSSALLVGGCNVVYGLSSHEKSNVGFGEVGSQSWIAQNRVLLFDPDGIDMPVDDRDMHVLQTRQQAPIDTRIAFQGLGVNSMQQNAGVFVGDAQITGWDQHQKSNKASGDIGGDHNVEIAGLHVNYDADGMDGVFLDSDHKAGTFVRQG
